Data taken from PMC5362085, “Differential effects of DEAE negative mode chromatography and gel-filtration chromatography on the charge status of Helicobacter pylori neutrophil-activating protein” (PLoS ONE, 2017).

Target: the molecule itself
Test: native gel or EMSA; native-PAGE (10% gel) of the load (soluble E. coli lysate), unbound, wash and elution fractions of DEAE Sepharose and DEAE Sephadex batch chromatography, 20 mM Tris-HCl, 50 mM NaCl, pH 7.0 to 9.0 at 25°C; unbound fractions more than 90% pure

B1: Helicobacter pylori neutrophil-activating protein (natural protein)
chain: MKTFEILKHLQADAIVLFMKVHNFHWNVKGTDFFNVHKATEEIYEEFADMFDDLAERIVQLGHHPLVTLSEAIKLTRVKEETKTSFHSKDIFKEILEDYKYLEKEFKELSNTAEKEGDKVTVTYADDQLAKLQKSIWMLQAHLA
notes: HP-NAP, product of the napA gene (HP0243) amplified from genomic DNA of H. pylori strain 26695; subunit of approximately 17 kDa; It states no tag and speaks of recombinant HP-NAP in its native form; its own experiments show only an oligomer; also called HP-NAP; recombinant HP-NAP; source: E. coli BL21(DE3) (pET42a-NAP, IPTG); in soluble lysate and DEAE batch chromatography fractions; copies: 12
- binding result: binds
